Laboratory results as given in patent US20220204575A1, “MODULATING SURVIVAL OF THERAPEUTIC CELLS AND METHODS, CELLS AND NUCLEIC ACIDS RELATED THERETO” (The Regents of the University of California, priority 2019, published 2022).

Columns and labels:
[1] = system: human primary CD4 T cells; test: Anti-Her2 synNotch driving pro-apoptotic BCL-2 family protein X, T cell survival with antigen-expressing target cells; format: cell-based; conditions: for induced apoptosis of T cells: in the presence of antigen-expressing target cells
Experimental: For example, a circuit was designed, as schematically depicted in FIG. 27, with an anti-Her2 synNotch driving expression of a pro-apoptotic BCL-2 family protein “X”, where X stands for the various pro-apoptotic BCL-2 family members were tested in the depicted circuit. As shown, upon the anti-Her2 scFv portion of the synNotch receptor binding Her2 expressed by a target cell, the transcription factor (TF) portion of the synNotch, containing Gal4-VP64, is released and inducing expression of the pro-apoptotic BCL-2 family protein “X”. The level of induced apoptosis in the presence of cells expressing the target antigen, as compared to control cells not expressing the target antigen, was then assessed.
Results of testing BID, tBID, PUMA, BMF, HRK and BIK as pro-apoptotic BCL-2 family protein “X” in this system are shown in FIG. 28, along with a negative control employing BFP in place of the pro-apoptotic BCL-2 family protein “X”.
Thus, the therapeutic cells encoding the BID circuit were able to survive BID induction.

primary human T cells = test: Constitutive overexpression of pro-apoptotic BCL-2 family proteins in T cells, FACS at culture day 12; format: cell-based; conditions: constitutive expression
Experimental: The abilities of several pro-apoptotic proteins (e.g., BIM, truncated Bid (tBID), and BAD) to induce T cell apoptosis when synthetically overexpressed from a constitutive promoter were tested. The tested T cells were also engineered to constitutively overexpress anti-apoptotic BCL-2.
Without being bound by theory, these effects were likely due to leaky expression of BIM, the high effectiveness of BIM in inducing apoptosis, or a combination thereof.

Molecule	induced apoptosis of T cells [1]	ability to drive T cell death (primary human T cells; in the absence of overexpressed BCL-2)	ability to induce T cell apoptosis / drive T cell death (primary human T cells; with constitutive overexpression of BCL-2, culture day 12)	relative level of induced therapeutic cell killing ([1]; comparison among tBID, PUMA, BMF, HRK and BIK)
PUMA: pro-apoptotic PUMA protein, human UniProt Q9BXH1 (protein, UniProt Q9BXH1 1-193, looked up) Bcl-2-binding component 3, …: MARARQEGSSPEPVEGLARDGPRPFPLGRLVPSAVSCGLCEPGLAAAPAAPTLLPAAYLCAPTAPPAVTAALGGSRWPGGPRSRPRGPRPDGPQPSLSLAEQHLESPVPSAPGALAGGPTQAAPGVRGEEEQWAREIGAQLRRMADDLNAQYERRRQEEQQRHRPSPWRVLYNLIMGLLPLPRGHRAPEMEPN	induce apoptosis of human primary CD4 T cells	–	–	–
BAD: pro-apoptotic BH3-only BCL-2 family protein, UniProt Q92934, heterologously expressed in T cells (protein, UniProt Q92934 1-168, looked up) Bcl2-associated agonist of …: MFQIPEFEPSEQEDSSSAERGLGPSPAGDGPSGSGKHHRQAPGLLWDASHQQEQPTSSSHHGGAGAVEIRSRHSSYPAGTEDDEGMGEEPSPFRGRSRSAPPNLWAAQRYGRELRRMSDEFVDSFKKGLPRPKSAGTATQMRQSSSWTRVFQSWWDRNLGRGSSAPSQ	–	insufficient to drive T cell death	insufficient to drive T cell death	–
BIK: pro-apoptotic BIK protein, human UniProt Q13323, SEQ ID NO: 104 (protein) MSEVRPLSRDILMETLLYEQLLEPPTMEVLGMTDSEEDLDPMEDFDSLECMEGSDALALRLACIGDEMDVSLRAPRLAQLSEVAMHSLGLAFIYDQTEDIRDVLRSFMDGFTTLKENIMRFWRSPNPGSWVSCEQVLLALLLLLALLLPLLSGGLHLLLK	induce apoptosis of human primary CD4 T cells	–	–	lower level of induced therapeutic cell killing
